From US20150079023A1

Biological target: CD16 (Fc receptor on NK cells) (human) (UniProt P08637)
Test: cell-based or functional assay

Sequence of UniProt P08637 (P08637 17-254): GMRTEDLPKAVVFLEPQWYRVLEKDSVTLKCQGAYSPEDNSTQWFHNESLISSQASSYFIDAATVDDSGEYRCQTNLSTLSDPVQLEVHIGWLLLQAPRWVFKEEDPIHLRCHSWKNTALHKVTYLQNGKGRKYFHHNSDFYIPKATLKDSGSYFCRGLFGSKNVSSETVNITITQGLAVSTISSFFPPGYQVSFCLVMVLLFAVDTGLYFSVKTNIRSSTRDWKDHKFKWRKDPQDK

Substance: rituximab (antibody)
- % of CD69+ cells among total NK cells, 7-day CLL PBMC culture, RTX 10 ug/mL (untreated median 35.75%): 65.2%
- median % of proliferating NK cells (CFSE dilution), 7-day CLL culture, antibody alone: 14.8%
- median % of proliferating NK cells (CFSE dilution), 7-day CLL culture, antibody plus IL-15 10 ng/mL (IL-15 alone 42.25%): 53.8%
- median % of viable CD19+/CD5+ B leukemic cells compared to untreated, 7 days, antibody alone: 79.5%
- median % of viable CD19+/CD5+ B leukemic cells compared to untreated, 7 days, antibody plus IL-15 10 ng/mL: 50.4%
